Laboratory results: PMC2063869 (The Journal of Cell Biology, 2006)

Key:
MBP–Apm1-Δ2–158 = target: T1, MBP–Apm1-Δ2–158 (S. cerevisiae, UniProt Q00776 1-475, Δ2–158); experiment: pull-down
T1 sequence (looked up): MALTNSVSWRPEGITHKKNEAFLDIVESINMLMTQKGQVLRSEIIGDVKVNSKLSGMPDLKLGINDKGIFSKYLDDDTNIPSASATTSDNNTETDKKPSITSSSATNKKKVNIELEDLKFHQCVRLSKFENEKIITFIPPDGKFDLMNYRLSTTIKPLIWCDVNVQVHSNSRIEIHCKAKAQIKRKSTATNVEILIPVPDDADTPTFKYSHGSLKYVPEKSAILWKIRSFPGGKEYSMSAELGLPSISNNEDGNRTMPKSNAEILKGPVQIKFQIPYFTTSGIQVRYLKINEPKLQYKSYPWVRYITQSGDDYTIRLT

MBP-Apm1 = target: T2, MBP-Apm1 (S. cerevisiae, UniProt Q00776 1-475); experiment: pull-down
T2 sequence (looked up): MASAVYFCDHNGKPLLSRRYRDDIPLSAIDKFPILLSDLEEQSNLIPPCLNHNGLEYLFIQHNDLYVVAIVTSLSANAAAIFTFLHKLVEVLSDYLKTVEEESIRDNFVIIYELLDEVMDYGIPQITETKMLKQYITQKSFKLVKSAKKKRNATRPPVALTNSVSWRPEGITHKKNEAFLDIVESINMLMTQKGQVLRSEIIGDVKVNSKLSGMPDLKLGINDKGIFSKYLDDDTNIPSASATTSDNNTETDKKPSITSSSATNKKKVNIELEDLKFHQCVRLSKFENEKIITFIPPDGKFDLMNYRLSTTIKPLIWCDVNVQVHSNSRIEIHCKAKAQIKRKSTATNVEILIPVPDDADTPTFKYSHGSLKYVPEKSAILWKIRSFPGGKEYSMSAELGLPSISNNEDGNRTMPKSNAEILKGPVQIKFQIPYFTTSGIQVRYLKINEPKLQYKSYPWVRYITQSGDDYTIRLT

B1: Ste13-GST (Ste13p cytosolic domain, residues 1–118, fused to the NH2 terminus of GST) (domain or fragment, S. cerevisiae, UniProt P33894 1-118, looked up)
chain: MSASTHSHKRKNSHLFPQRKSSNSSMDKPFFPNNDSVANTDPQSNENGHTINEIRPTEATIDVTDVPQTPFLQEQYSMRPRRESFQFNDIENQHHTHSFFSVNKFNRRWGEWSLPEKR
B1: binds (MBP–Apm1-Δ2–158); binds (MBP-Apm1).
